Reference: the DeepSol protein solubility set

Assay: soluble on expression in E. coli; label from the status in PepcDB or PDB records

Row | Sequence | soluble on expression in E. coli
1 | MGSDKIHHHHHHAACEKDPDMDKLDNDYLVYTNYDKKADFKQFSTYYIPDSVLVIGDKKDPEYWKGEAAEAIINAYKENLNSKGFTYTDNKDAADLGIQVSYVQSTYYFTDYGQPEWWWNYPGYWDAPYWGNWGGWYYPYVVNYSITTNSFLTEIMNLKAPEGEKQKLPVLWSSFLSGPASYSGKVNQTLVVRAINQSFAQSPYLTNK | not soluble
2 | MSLSNPLNDLSKKYLTKGLNLASWAEANKITSANPKDWKYNEAIIKLQAEQGLLGIRFPIDLDLYVVDRLNVLNGTKKKIEIEPMLYTLMDSMNIWTKRYGLSLTIDYHAYDGSYNRASSKDPKFREAVSSLWRVVAQHFVKEKREDLFFELTNEPCLSLPEGEYIDQTDWTLLAQMMIDSIRRVDKTRPIIFGDTKWYSLDELIKNKPLKDPYVIYCFHMYDPFLFTHQGASWANMGTMKNIPFPYSPERWSTEFRDFGIVDGTPAWVKDLAKRYYQEGNKQFIKNRLAKVKNWAYEYNVPLICNEWGALPNTAKIEDLNAYFKTMGEIFEEMDISWQVWFGIMDSDYKLLPGMAEALHLKEGHHHHHH | soluble
3 | MGSDKIHHHHHHMTNTIPNWIKLNNEIMIQKDGKYQFEKDKEAVHSYFVDYINQNTVFFHDLKEKLDYLIKNDYYEEEFLSKYTFEQIKSIYKIAYSYKFRFPSFMSAFKFYNDYALKTNDKTKILERYEDRVSIVALYCADGDYEKAVEEVHTMMKQEYQPATPTFLNAGRKRRGEMVSCFLLEVGDSLNDISRAIDISMQLSKLGGGVALNLNKLRAKGEAIKDVENATKGVVGVMKLLDNAFRYADQMG | not soluble
4 | MDVNTASQSTTDEQMMDILLVLDKEKKTISAVKGVDENGELQTVPPENNSELLKFDRHGDFFSNFFSNMMNQLKNPTRFNFFKIPKIELPKIEPIIRDNFNHPTPENEAGIERYRVTPETVKQEAKKEQQETQAQQPQQPAKEAGAMAQTPQQPDKSKYVIDPDKVDWEALKNFGLSKEQLEKAKALEPMLRGYKSPGAFTIAGNYNSAIMKLDARLSFRHDKDGNVVLAIHGIRQKPELERPFFGHEFSKEDKANLLETGNMGRIVNLKNYITGEMIPSFVSVDKVTNELVSMRASSVQIPDEIKGVKLNKEQKQALREGKGVFLENMISNRKNPFSATVQVNADKKSLEFIYPNAKQSQEQGQKQTQQNSLVTSDGVTIPKSISGIELSRQQQQDLVNDKTIFVAGLKDKRGVEYDAYIQVNHDKKKLGFYSDNPSFDRSAVKEITPASKNRTQVAVNSEGKTNEATKKVKEPLKKGQDKPTEKQKTKQDKKEKQEQTDKPKQSRGRKR | not soluble
5 | MASLRDIKAKINSTKKTSQITKAMEMVSASKLNRAEQNAKSFVPYMEKIQEVVASIAQGSKGINHPMLNARPVKRTGYIVITSDRGLAGGYNSNVLRTVSNVIRERHNMDSNQYSIIVLGRLGRDYLKRRGFNIIDEVVGLSDHPSFTDIKDLASRAIAMFADGAYDELYIYYNHYVSKISQEVTENKILPLTDVASDKPTTAYEFEPSEEEILKVLLPQYAESLVYGALLDGKASEHAARMTAMKSATDNAMEVIDSLTLSFNRARQAAITQEITEIVGGAAALE | not soluble
6 | MENILDYNEAELKQWMDKNGEKTFRAKQFFDWIYNGTFDFKDMKNLPQSTRERLEKNFYIGMPSVVKRLNSKKGDTVKFLFRYNDGNIIECVVMKYDYGNSICISTQVGCRMGCSFCASTIGGRVRDLTSGEILAQILKAQKEIGERISNIVLMGSGEPLDNYDNVIKFIRIVNSEKGLNIGQRHITLSTCGIVPRIYDLMKENLQITLAISLHASDDETRKKIMPIANRYSISEIIDCCKKYSDFTGRRITFEYSLVKDVNDDKESAKKLGELLSGMLCHVNLIPVNTVNETSYEKPESSKIKKFCDTLLKYKIESTIRKEMGADINAACGQLRRNYIEESEGK | not soluble
7 | MGSDKIHHHHHHMSTVAFHTLGCKVNHYETEAIWQLFKEANYERVDFEANADVFVINTCTVTNTGDKKSRQIIRRAIRQNPDAVICVTGCYAQTSSAEIMEIPGVDVVVGTQDRHKLLGYIDEFRKERQPINGVGNIMKNRKYEELDVPYFTDRTRASLKIQEGCNNFCTFCIIPWARGLMRSRDPEKVVEQATQLVNSGYKEIVLTGIHTGGYGQDLKDYNLAQLLRDLETINGLERIRISSIEASQLTDEVIDVLERSTKVVRHLHIPLQSGSDTVLKRMRRKYTMDRFSERLTKLHKALPDLAVTSDVIVGFPGETEAEFQETYDFIVKHKFSELHVFPYSPRIGTPAARMDDQIDEEIKNERVHKLITLSNQLGKLYASKFDQDVLEVIPEEQGDTEGTLVGYADNYMKVQFEGDESLIGQIVKVKITQANYPLNEGQAIKVVDFATNKSDREVLV | not soluble
8 | MAHHHHHHMRVSPNSLSEAASQLEQDRERDFFRLLYIVDRARRFLSIPVGNVDWRLTCDCLDDMNHRYADTGFLLGFTGGYVLRNRAGRTLLSRFWFSMYLGLVFYDWELRRTTRAPALEYWNSICTVDTEVGRIARVLHTPARFYEAAPMSTAFSGGPPPLPRGSSSSPSPAPHGASVRDWLWRYVSDTMSSVLLMTLCSHLFEGSSWRHRTSDNVEVTALVINSRFFHWKVFESCQVQRNETTEYNISLKWFPSFAASDSLRRSFQCRELILERSTLGGRLWYRTHFSLLRCLGLDSQ | not soluble
9 | MDEEASRTARESLELVFRMSNILDTGLDRHTLSVLIALCDLGVNPEALATVVKELRRESIPDSVTTTPSIH | soluble
10 | MNQQDIEQVVKAVLLKMKDSSQPASTVHEMGVFASLDDAVAAAKRAQQGLKSVAMRQLAIHAIREAGEKHARELAELAVSETGMGRVDDKFAKNVAQARGTPGVECLSPQVLTGDNGLTLIENAPWGVVASVTPSTNPAATVINNAISLIAAGNSVVFAPHPAAKKVSQRAITLLNQAVVAAGGPENLLVTVANPDIETAQRLFKYPGIGLLVVTGGEAVVDAARKHTNKRLIAAGAGNPPVVVDETADLPRAAQSIVKGASFDNNIICADEKVLIVVDSVADELMRLMEGQHAVKLTAAQAEQLQPVLLKNIDERGKGTVSRDWVGRDAGKIAAAIGLNVPDQTRLLFVETPANHPFAVTEMMMPVLPVVRVANVEEAIALAVQLEGGCHHTAAMHSRNIDNMNQMANAIDTSIFVKNGPCIAGLGLGGEGWTTMTITTPTGEGVTSARTFVRLRRCVLVDAFRIV | not soluble
11 | MGSDKIHHHHHHMTHYKNNIDEAATLINSEGSAWNAINPESVARMRLQNRFKTGLDIAKYTAKIMREDMDNYDKDTSQYTQSLGCWHGFIAQQKMISIKKHLLTTKRRYLYLSGWMVAALRSEFGPLPDQSMHEKTSVAALIKELYTFLRQADARELGGLFRELDSAKESDKAAIQHKIENFETHVVPIIADIDAGFGNEEATYLMAKQMIEAGACCIQLENQVSDVKQCGHQDGKVTVPHVEFLAKINAVRYAFLELGIDDGVIVARTDSLGAGLTQKIAVTKEAGDLGDLYNSFLEVEAVDAAKLENGDVVFKQGGKLVKPARLPNGLFKFRAGTGEERCVLDCITSLQNGADLLWIETEKPHVSQIGGMVNEIRKVVPNAKLVYNNSPSFNWTLNFRQQVFDAMQKAGQDVSAYDRAQLMSVDYDGTELAIQADEKIRTFQSDSAREAGIFHHLITLPTYHTAALSTDNLAKEYFGDQGMLGYVANVQRKEIRQGIACVKHQNMAGSDIGDAHKEYFSGDQALKASGKDNTMNQF | not soluble
12 | MGSDKIHHHHHHMTVLILTNPFDITADDVILRLTERGVPVVRLDPADFPQQVVLHSEIGGNGWTGTLTTPHRILDLSTVTGIWYRRPRKFRLPAQMSQAEYEFAATEARRGFGGIINSLTGWINHPSAIGRAEYKPYQLHHAVQAGLNVPRTLITNDPKQAKGWCARVGDVVYKPLSAPSWLENGDTYVVFTTPITPDQWGDPAIGRTAHMFQQRLDKEFEVRLTMVDGKAFPAAIHAHSDAARIDWRSDYDALTYSIPTVPQRVLTGARDLLRRLHLRYAALDFIVSPDGRWHFLEVNPNGQYGWIEEHTGQPISDAIADALTRKEN | not soluble
13 | MGSDKIHHHHHHMSESLPPDAQRSPSYRAGVGLKAEHYRTILESQPDIGFFEVHAENYMGAGGPPHRFLSAIRESYPLSLHGVGLSIGADRPLDRDHLQRLKELIARYSPALFSEHLAWSSHDCGFLNDLLPVPYTAESLTRIVDHIDQVQEVLGRQMLLENPSTYLAFEESTYPEIDFIAAVVRRTGCGLLLDVNNVYVASINQQWDPFAYIDEYPLAAVQEIHLAGHAEETDEKARPLLIDSHDRHVADVVWDLYARAIRGTGPIPTLIEWDANIPDWPTLKAEAGRADAVVQAATQPASVDHVTIRSQFDMTRRRLKEAQTL | not soluble
14 | MRKNILITGVHGYIGNALKDKLIEQGHQVDQINVRNQLWKSTSFKDYDVLIHTAALVHNNSPQARLSDYMQVNMLLTKQLAQKAKAEDVKQFIFMSTMAVYGKEGHVGKSDQVDTQTPMNPTTNYGISKKFAEQALQELISDSFKVAIVRPPMIYGAHCPGNFQRLMQLSKRLPIIPNINNQRSALYIKHLTAFIDQLISLEVTGVYHPQDSFYFDTSSVMYEIRRQSHRKTVLINMPSMLNKYFNKLSVFRKLFGNLIYSNTLYENNNALEIIPGKMSLVIADIMDETTTKDKA | not soluble
15 | MIPTTATVDDEPGQIKRALIDASAGAISGGVSRSVTSPLDVIKIRFQVQLEPTTSWGLVRGNLSGASKYTGMVQATKDIFREEGFRGFWRGNVPALLMVMPYTSIQFTVLHKLKSFASGSTKTEDHIHLSPYLSFVSGALAGCAATLGSYPFDLLRTILASQGEPKVYPTMRSAFVDIIQSRGIRGLYNGLTPTLVEIVPYAGLQFGTYDMFKRWMMDWNRYKLSSKIPINVDTNLSSFQLFICGLGAGTSAKLVCHPLDVVKKRFQIEGLQRHPRYGARVERRAYRNMLDGLRQIMISEGWHGLYKGIVPSTVKAAPAGAVTFVAYEFTSDWLESISW | soluble
16 | MGSDKIHHHHHHMTLNNLEIDTLVVGAGQAGVAMSEHLSKLGVPHLVLERNRIAQAWRTGRWDSLVANGPAWHDRFPGLEFNLDADAFAGKDQVADYFEQYVRKYNLPVRTGIEVKRVVRNSDRPGFTIDTSEGVIRANRVVAATGPFQKPVIPAIAPKDSNLHQIHSAAYFNPEQLPEGAVLVVGAGSSGVQIAEELMRAGRQVYLSVGAHDRPPRAYRNRDFCWWLGVLGEWDAEIAKPGREHVTIAVSGARGGHTVDFRALAHQGMTLVGLTQSFENGVARFQDNLVENINRGDDNYLALLDAADAYIERNGLDLPEEPEARQRLADPECMRNPLQQLDLAKAGVSSIIWATGYGVDFSWLQVDTFDANGKPQHQRGVAREPGVYFLGLPWLSRRGSSFIWGVWHDAKHVAGHIATQRTYTAYRDREQRAADEQQTAKISNVSTLGAH | not soluble
17 | HSHSDKHPVTWQPSKDGDRLIGRILLNKRLKDGSVPRDSGAMLGLKVVGGKMTESGRLCAFITKVKKGSLADTVGHLRPGDEVLEWNGRLLQGATFEEVYNIILESKPEPQVELVVSR | soluble
18 | TDTDEVINLRVVETTDIHTNLMDYDYYKDKPTQKIGLARTATLVKEARAEVTNSVLVDNGDLLQGSPMGDYMADKGIEAGEVHPAYKAMNQLDYDAGNIGNHEFNYGLEFLAESINDADFPYISANVYDAKTKEHYFKPYIIKTHKLKDTAGVEHEIKVGYIGFVPPQIMVWDKKNLEGKVFARDIKETAEELVPQMKAEGADVIVAIPHSGVSTNPYKQGEENSTYYLSEVDGIDAIAFGHSHAVFPGKGFDNLQGIDNENGTINGVAAVMPGRWGSHVGVMDLTLEQKDGKWSVVKGQSEARPIFDKTNQKSLADADKGIVQALEADHKGTRDFVNQ | not soluble
